Bridge positions count the residues as written; N and C are the ends. Square brackets hold non-standard residues; d marks the D form. Peptide text beside a SMILES is read from it. * marks the point of attachment. ξ: configuration not given here. FITC = O=C1OC2(c3ccc(O)cc3Oc3cc(O)ccc32)c2ccc(NC(=S)*)cc21; ξThr(3R) = C[C@@H](O)C(N)C(=O)O; GABA = NCCCC(=O)O
Legend:
H1299 cells = test: XTT cytotoxicity assay on H1299 cells; type: cell-based; details: for IC50: H1299
Procedure: (§1) Cell growth in the presence of PDCs was measured by a commercial XTT assay kit (Cell Proliferation Kit, XTT based; Biological Industries, Israel). The cells (10^4 cells/well) were seeded in 96 well plates and incubated overnight in complete growth medium. The cells were washed and then cultured in 100 μl of new medium containing various concentrations of drug or peptides, for 24 h, 48 h, and 72 h. The XTT solution was added to each well and the plate was further incubated 2-3 h at 37° C. The optical density in the wells was measured at both 480 nm and 680 nm using a TECAN Infinite M200 ELISA reader. All the tests were done in triplicates, and each experiment was repeated three times.
(§2) The cytotoxicity of the Peptide-Drug conjugates (PDCs) was tested in a range of concentrations (0.5-50 μM) against H1299 and DKMG cells using two protocols. In the first protocol, cells were pre-incubated with P6, P9, P6-CPT, and P9-CPT for 6 hours, the medium was removed, and a fresh, drug-free complete medium was added for additional 24 h (designated as 6h24h) or 48 h (6h48h). In the second protocol, cells were exposed continuously to PDCs for 24 h, 48 h, and 72 hours.

DKMG cells = test: XTT cytotoxicity assay on DKMG cells; type: cell-based
Procedure: as §1, §2

[1] = test system: EGFR+ve cells (H1299, DKMG) versus K562 cells; test: Flow cytometry internalization of peptide-FITC conjugates; type: cell-based; details: 2.5 μM FITC-labeled peptide
Source text: Analysis was done with FACS cell analyzer.

[2] = test system: H1299, H1975 and DKMG cells; test: Phage display biopanning with NGS, selection of EGFR-specific peptides; type: cell-based; details: 3 rounds of biopanning, K562-derived sequences excluded
Procedure: A heptapeptide phage display library (Ph.D.-C7C Phage Display Library Kit, New England Biolabs, USA) was used for the in vitro biopanning experiments. All cell lines were individually incubated with phages from the stock library. […] Adherent cells (H1299, […] and DKMG) were plated at a density of 10^5 cells/ml in a 6-well plate. When the culture reached 80% confluence, the first well was incubated with phage library (10^11 pfu/10 μl) for 1 h at 37° C. with gentle stirring. The medium containing unbound phage was collected and transferred to the second, similar well and incubated again. The procedure was repeated with the third well. Cells in the third wells were washed four times with 0.5% Tween-20 in PBS. Then, 0.5 ml of elution buffer (0.2 M glycine-HCl, pH 2.2) was added and incubated for 10 min at 4° C.; the pH was neutralized by addition of 75 μl of 1 M Tris-HCl buffer, pH 9.0. The supernatant containing cell surface binding phage was collected. The cells were then lysed by incubation for 1 h at 4° C. with 2 ml of 30 mM Tris-HCl and 1 mM EDTA, pH 8.0. The medium was collected and centrifuged at 1,500 rpm for 5 min and the supernatant containing cell-internalized phage was transferred to a new tube. The internalized and surface-bound phages were amplified according to the manufacturer's instructions. An aliquot of the phages was retained for sequencing (see below) and the remainder was subjected to two additional rounds of biopanning. […]
Finally, two groups of peptides were constructed; the first included sequences that were present in all three EGFR+ve cell lines and included about 416 sequences; the second was divided into three subgroups, one for each cell line, wherein the subgroup for H1299 included some 1666 sequences, the subgroup for H1975 included some 10437 sequences, the subgroup for DKMG included some 981 sequences. From this list, top eleven S—S bridged cyclic peptides sequences were selected by their count in the sequencing data (the highest number of reads). […]

[3] = target: T1, epidermal growth factor receptor (EGFR), wild type (human, UniProt P00533 25-1210); test: flow cytometry, 2.5 uM FITC-peptide on H1299 cells (EGFR overexpressing)
T1 construct: whole, on cells; The target is inferred from tumour cell lines that overexpress EGFR, compared with EGFR-negative cells; No purified receptor was used; also called EGFRWT; EGFR WT

[4] = target: T2, EGFR variant III (EGFRvIII), on DKMG glioblastoma cells (human, UniProt P00533 25-1210); test: flow cytometry, 2.5 uM FITC-peptide on DKMG cells (EGFR WT and EGFRvIII)
T2 construct: whole, on cells; DKMG cells express both wild type EGFR (92% of cells) and EGFRvIII (82%); All results on DKMG cells are written against this molecule; also called EGFR mutant; EGFRVIII DKMG

Molecule	binding result [3]	binding result [4]	other results
CC[C@@]1(O)C(=O)OCc2c1cc1n(c2=O)Cc2cc3ccccc3nc2-1 [CPT, (S)-(+)-camptothecin, reference compound]	–	–	IC50 (H1299 cells; Homo sapiens, NCI-H1299, 6 w 48 h (6 h pre-incubation, then 48 h drug-free medium)): 6.7 ± 1.8 µM; IC50 (DKMG cells; 6 w 48 h (6 h pre-incubation, then 48 h drug-free medium)): 8.5 ± 1 µM; IC50 (DKMG cells; 24 h continuous exposure): 25 µM
CC(C)[C@@H]1NC(=O)[C@@H](NC(=O)CCCNC(=S)Nc2ccc3c(c2)C(=O)OC32c3ccc(O)cc3Oc3cc(O)ccc32)CSSC[C@@H](C(N)=O)NC(=O)[C@H](CCCNC(=N)N)NC(=O)CNC(=O)[C@H](Cc2ccccc2)NC(=O)[C@H](CCCNC(=N)N)NC(=O)[C@H](Cc2c[nH]c3ccccc23)NC(=O)[C@H](CCCNC(=N)N)NC1=O [FITC-labeled P3] ({FITC-GABA}-CVRWRFGRC-NH2; disulfide 1-9)	–	–	internalization (flow cytometry) [1]: internalized only into to EGFR+ve cells
CC[C@H](C)[C@@H]1NC(=O)[C@H](Cc2ccc(O)cc2)NC(=O)[C@H](CO)NC(=O)CNC(=O)[C@@H]2CCCN2C(=O)[C@H](C(C)C)NC(=O)[C@H](Cc2cnc[nH]2)NC(=O)[C@@H](N)CSSC[C@@H](C(N)=O)NC1=O [Peptide P6] (H-CHVPGSYIC-NH2; disulfide 1-9)	–	–	cytotoxicity (H1299 cells): did not demonstrate cytotoxicity; IC50 (H1299 cells; 24 h continuous exposure): 27.5 ± 0.8 µM; IC50 (H1299 cells; 48 h continuous exposure): 32 µM; IC50 (H1299 cells; 72 h continuous exposure): 28.8 µM
CC(C)C[C@@H]1NC(=O)[C@H](Cc2c[nH]c3ccccc23)NC(=O)[C@H](CC(N)=O)NC(=O)[C@@H](N)CSSC[C@@H](C(N)=O)NC(=O)[C@H](CCC(=O)O)NC(=O)C([C@@H](C)O)NC(=O)[C@H](CCCNC(=N)N)NC(=O)[C@H](CO)NC1=O (stereo partly drawn) [Peptide P10] (H-CNWLSR[ξThr(3R)]EC-NH2; disulfide 1-9)	–	–	Cell line (peptide specificity per cell line; source of the cells from which the peptide was identified) [2]: DKMG
C[C@@H]1NC(=O)[C@@H](N)CSSC[C@@H](C(N)=O)NC(=O)[C@H](CCCNC(=N)N)NC(=O)CNC(=O)[C@@H]2CCCN2C(=O)[C@H]([C@@H](C)O)NC(=O)[C@H](Cc2ccc(O)cc2)NC(=O)[C@H](CCC(N)=O)NC1=O [Peptide P11] (H-CAQYTPGRC-NH2; disulfide 1-9)	–	–	Cell line (peptide specificity per cell line; source of the cells from which the peptide was identified) [2]: DKMG
{FITC-GABA}-CSALWASHC-NH2 (disulfide 1-9; SMILES CC(C)C[C@@H]1NC(=O)[C@H](C)NC(=O)[C@H](CO)NC(=O)[C@@H](NC(=O)CCCNC(=S)Nc2ccc3c(c2)C(=O)OC32c3ccc(O)cc3Oc3cc(O)ccc32)CSSC[C@@H](C(N)=O)NC(=O)[C@H](Cc2c[nH]cn2)NC(=O)[C@H](CO)NC(=O)[C@H](C)NC(=O)[C@H](Cc2c[nH]c3ccccc23)NC1=O, also called FITC-labeled P8) [FITC-labeled cyclic peptide P8, c(CSALWASHC)]	binds	binds	–
{FITC-GABA}-CAQYTPGRC-NH2 (disulfide 1-9; SMILES C[C@@H]1NC(=O)[C@@H](NC(=O)CCCNC(=S)Nc2ccc3c(c2)C(=O)OC32c3ccc(O)cc3Oc3cc(O)ccc32)CSSC[C@@H](C(N)=O)NC(=O)[C@H](CCCNC(=N)N)NC(=O)CNC(=O)[C@@H]2CCCN2C(=O)[C@H]([C@@H](C)O)NC(=O)[C@H](Cc2ccc(O)cc2)NC(=O)[C@H](CCC(N)=O)NC1=O, also called FITC-labeled P11) [FITC-labeled cyclic peptide P11, c(CAQYTPGRC)]	binds	binds	–
{FITC-GABA}-CVNAMQSYC-NH2 (disulfide 1-9; SMILES CSCC[C@@H]1NC(=O)[C@H](C)NC(=O)[C@H](CC(N)=O)NC(=O)[C@H](C(C)C)NC(=O)[C@@H](NC(=O)CCCNC(=S)Nc2ccc3c(c2)C(=O)OC32c3ccc(O)cc3Oc3cc(O)ccc32)CSSC[C@@H](C(N)=O)NC(=O)[C@H](Cc2ccc(O)cc2)NC(=O)[C@H](CO)NC(=O)[C@H](CCC(N)=O)NC1=O, also called FITC-P9; FITC-labeled P9) [FITC-labeled cyclic peptide P9, c(CVNAMQSYC)]	binds	binds	–
{FITC-GABA}-CVRWRFGRC-NH2 (disulfide 1-9; SMILES CC(C)[C@@H]1NC(=O)[C@@H](NC(=O)CCCNC(=S)Nc2ccc3c(c2)C(=O)OC32c3ccc(O)cc3Oc3cc(O)ccc32)CSSC[C@@H](C(N)=O)NC(=O)[C@H](CCCNC(=N)N)NC(=O)CNC(=O)[C@H](Cc2ccccc2)NC(=O)[C@H](CCCNC(=N)N)NC(=O)[C@H](Cc2c[nH]c3ccccc23)NC(=O)[C@H](CCCNC(=N)N)NC1=O, also called FITC-labeled P3) [FITC-labeled cyclic peptide P3, c(CVRWRFGRC)]	binds	binds	–
{FITC-GABA}-CLAVEVRPC-NH2 (disulfide 1-9; SMILES CC(C)C[C@@H]1NC(=O)[C@@H](NC(=O)CCCNC(=S)Nc2ccc3c(c2)C(=O)OC32c3ccc(O)cc3Oc3cc(O)ccc32)CSSC[C@@H](C(N)=O)NC(=O)[C@@H]2CCCN2C(=O)[C@H](CCCNC(=N)N)NC(=O)[C@H](C(C)C)NC(=O)[C@H](CCC(=O)O)NC(=O)[C@H](C(C)C)NC(=O)[C@H](C)NC1=O, also called FITC-labeled P4) [FITC-labeled cyclic peptide P4, c(CLAVEVRPC)]	binds	binds	–
{FITC-GABA}-CSAETVESC-NH2 (disulfide 1-9; SMILES CC(C)[C@@H]1NC(=O)[C@H]([C@@H](C)O)NC(=O)[C@H](CCC(=O)O)NC(=O)[C@H](C)NC(=O)[C@H](CO)NC(=O)[C@@H](NC(=O)CCCNC(=S)Nc2ccc3c(c2)C(=O)OC32c3ccc(O)cc3Oc3cc(O)ccc32)CSSC[C@@H](C(N)=O)NC(=O)[C@H](CO)NC(=O)[C@H](CCC(=O)O)NC1=O, also called FITC-labeled P2) [FITC-labeled cyclic peptide P2, c(CSAETVESC)]	binds	binds	–
{FITC-GABA}-CPNDSYHQC-NH2 (disulfide 1-9; SMILES NC(=O)CC[C@@H]1NC(=O)[C@H](Cc2c[nH]cn2)NC(=O)[C@H](Cc2ccc(O)cc2)NC(=O)[C@H](CO)NC(=O)[C@H](CC(=O)O)NC(=O)[C@H](CC(N)=O)NC(=O)[C@@H]2CCCN2C(=O)[C@@H](NC(=O)CCCNC(=S)Nc2ccc3c(c2)C(=O)OC32c3ccc(O)cc3Oc3cc(O)ccc32)CSSC[C@@H](C(N)=O)NC1=O, also called FITC-labeled P5) [FITC-labeled cyclic peptide P5, c(CPNDSYHQC)]	binds	binds	–

From patent US20250346634A1, “CYCLIC PEPTIDES FOR TARGETING EPIDERMAL GROWTH FACTOR RECEPTOR AND MUTATIONS THEREOF FOR DRUG DELIVERY” (priority 2022, published 2025)
